The record followed here is paper PMC4686714.

The target of this test is ENPP1-Fc fusion protein (not stated | not stated (human or mouse cDNA cloned)) (UniProt P22413). The test is described as follows: SEC-MALS; SEC-MALLS/UV/RI, Superose 6 10/30 HR column, PBSplus buffer, 0.3 ml/min; ENPP1-Fc at 100 nM to 1 uM measured at the apex of the eluting peak; three detector approach.

“ENPP1-Fc fusion protein (from UniProt P22413 98-925)”: the stoichiometry N is 2.

For orientation: stoichiometry N means the number of molecules, sites or subunits per partner or assembly.
